This series has as its system Escherichia coli TOP10. The series can be described thus: shrunken log2 fold change of peptide-encoding DNA abundance (4.5 h post-induction vs induction); higher = less antimicrobial activity (less host growth inhibition). The note with it: time post-induction: 4.5 h; library: site-saturation at positions 5, 18, 19, 20.

The text below walks through data of the supplement of paper PMC9112550, “Optimization of the antimicrobial peptide Bac7 by deep mutational scanning” (BMC Biology, 2022).
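Note: peptides expressed intracellularly from a pBAD plasmid library in pooled LB shake-flask culture, induced with 0.3% L-arabinose, DNA abundance read by NGS, three biological replicates, DESeq2 with apeglm shrinkage.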

As for RRIRRRPPRLPRPRPRPYKRPRP, the “shrunken log2 fold change” value is -0.238.
The figure for RRIRPRPPRLPRPRPRPVGEPRP is 0.415; for RRIRDRPPRLPRPRPRPVVNPRP it is 0.24; for RRIRRRPPRLPRPRPRPHLIPRP it is -0.293.
The same measure for RRIRYRPPRLPRPRPRPRGLPRP: -0.0424.
The figure for RRIRGRPPRLPRPRPRPSAMPRP is 0.989.
Consider RRIRCRPPRLPRPRPRPSDRPRP, for which the “shrunken log2 fold change” value was -0.473.
As for RRIRYRPPRLPRPRPRPCTNPRP, the “shrunken log2 fold change” value stood at 0.0527.
The same measure for RRIRPRPPRLPRPRPRPFKNPRP: -0.615; for RRIRCRPPRLPRPRPRPQGIPRP: 0.158.
The same measure for RRIRCRPPRLPRPRPRPIAQPRP: 0.00422.
The same measure for RRIRWRPPRLPRPRPRPRMKPRP: 0.158.
For RRIRARPPRLPRPRPRPWPGPRP, the “shrunken log2 fold change” value is 0.266.
The figure for RRIRYRPPRLPRPRPRPCWVPRP is -0.158; for RRIRARPPRLPRPRPRPTPPPRP it is 0.811.
The same measure for RRIRGRPPRLPRPRPRPAAWPRP: 0.936.
The figure for RRIRMRPPRLPRPRPRPGEYPRP is 0.434.
For RRIRGRPPRLPRPRPRPRLTPRP, the “shrunken log2 fold change” value amounted to 0.948.
On to RRIRFRPPRLPRPRPRPKTRPRP, for which the “shrunken log2 fold change” value was 0.277.
The figure for RRIRVRPPRLPRPRPRPMDDPRP is -0.312.
For the sequence RRIRLRPPRLPRPRPRPHLDPRP, the “shrunken log2 fold change” value was -0.0911.
RRIRWRPPRLPRPRPRPIDMPRP: the “shrunken log2 fold change” value was determined as 0.0712.
RRIRCRPPRLPRPRPRPCSTPRP: the “shrunken log2 fold change” value was -0.245.
The figure for RRIRMRPPRLPRPRPRPWNWPRP is 0.342; for RRIRQRPPRLPRPRPRPTHIPRP it is -0.387; for RRIRGRPPRLPRPRPRPQITPRP it is 0.25.
The same measure for RRIRQRPPRLPRPRPRPVKDPRP: -0.03.
Regarding RRIRDRPPRLPRPRPRPKDFPRP, the “shrunken log2 fold change” value is -0.00804.
For the sequence RRIRIRPPRLPRPRPRPFDPPRP, the “shrunken log2 fold change” value was -0.438.
As to RRIRRRPPRLPRPRPRPSVGPRP, the “shrunken log2 fold change” value came to 0.171.
In the case of RRIRNRPPRLPRPRPRPWLAPRP, the “shrunken log2 fold change” value was -0.254.
As to RRIRKRPPRLPRPRPRPHNNPRP, the “shrunken log2 fold change” value is -0.244.
Turning to RRIRYRPPRLPRPRPRPESDPRP, the “shrunken log2 fold change” value worked out at 0.03.
With RRIRSRPPRLPRPRPRPKPPPRP, the “shrunken log2 fold change” value was 0.292.
Take RRIRCRPPRLPRPRPRPGWTPRP: the “shrunken log2 fold change” value worked out at 0.0289.
The figure for RRIRVRPPRLPRPRPRPSIVPRP is -0.364.
The figure for RRIRSRPPRLPRPRPRPTQCPRP is 0.23; for RRIRQRPPRLPRPRPRPRQMPRP it is 0.297.
The same measure for RRIRHRPPRLPRPRPRPICQPRP: -0.113; for RRIRERPPRLPRPRPRPYAPPRP: -0.624.
On to RRIRWRPPRLPRPRPRPMELPRP, for which the “shrunken log2 fold change” value came out at 1.2.
For the sequence RRIRMRPPRLPRPRPRPVASPRP, the “shrunken log2 fold change” value is 0.58.
The same measure for RRIRWRPPRLPRPRPRPAWGPRP: 0.477; for RRIRTRPPRLPRPRPRPKETPRP: 0.137; for RRIRSRPPRLPRPRPRPTGSPRP: 0.0396.
The figure for RRIRPRPPRLPRPRPRPIFSPRP is 0.14; for RRIRYRPPRLPRPRPRPLKYPRP it is -0.352; for RRIRARPPRLPRPRPRPEPNPRP it is 1.16.
The same measure for RRIRARPPRLPRPRPRPHKTPRP: 0.0429; for RRIRDRPPRLPRPRPRPPWYPRP: -0.0741; for RRIRERPPRLPRPRPRPWMCPRP: -0.11.
For RRIRLRPPRLPRPRPRPMDVPRP, the “shrunken log2 fold change” value was 0.0104.
With RRIRIRPPRLPRPRPRPFPKPRP, the “shrunken log2 fold change” value is -0.101.
With RRIRQRPPRLPRPRPRPRGHPRP, the “shrunken log2 fold change” value came out at 0.342.
RRIRCRPPRLPRPRPRPLWIPRP: the “shrunken log2 fold change” value was -0.166.
The same measure for RRIRIRPPRLPRPRPRPAADPRP: 0.0637; for RRIRNRPPRLPRPRPRPNNGPRP: -0.0309; for RRIRHRPPRLPRPRPRPAYVPRP: -0.102.
With RRIRGRPPRLPRPRPRPGQYPRP, the “shrunken log2 fold change” value was -0.0691.
The same measure for RRIRGRPPRLPRPRPRPGCMPRP: 0.898; for RRIRPRPPRLPRPRPRPWTRPRP: 0.0201.
Take RRIRSRPPRLPRPRPRPHVEPRP: the “shrunken log2 fold change” value came to 0.121.
For the sequence RRIRSRPPRLPRPRPRPAPEPRP, the “shrunken log2 fold change” value was 0.479.
Turning to RRIRCRPPRLPRPRPRPTKDPRP, the “shrunken log2 fold change” value was -0.489.
For the sequence RRIRARPPRLPRPRPRPKWWPRP, the “shrunken log2 fold change” value was 0.149.
Regarding RRIRYRPPRLPRPRPRPAMQPRP, the “shrunken log2 fold change” value is -0.0244.
For the sequence RRIRQRPPRLPRPRPRPPTIPRP, the “shrunken log2 fold change” value was 2.14.
Regarding RRIRMRPPRLPRPRPRPDFLPRP, the “shrunken log2 fold change” value stood at 0.0612.
The figure for RRIRERPPRLPRPRPRPLPAPRP is 0.065; for RRIRERPPRLPRPRPRPNHPPRP it is -0.278.
On to RRIRIRPPRLPRPRPRPFWVPRP, for which the “shrunken log2 fold change” value was -0.2.
Regarding RRIRTRPPRLPRPRPRPEWQPRP, the “shrunken log2 fold change” value worked out at 0.495.
Consider RRIRIRPPRLPRPRPRPDMHPRP, for which the “shrunken log2 fold change” value was -0.0689.
The same measure for RRIRSRPPRLPRPRPRPSQTPRP: -0.128; for RRIRIRPPRLPRPRPRPLADPRP: -0.0519; for RRIRKRPPRLPRPRPRPTCAPRP: 0.786.
The figure for RRIRDRPPRLPRPRPRPEFTPRP is 0.174.
With RRIRMRPPRLPRPRPRPDTKPRP, the “shrunken log2 fold change” value was 0.0742.
With RRIRSRPPRLPRPRPRPRAIPRP, the “shrunken log2 fold change” value was found to be 0.134.
The figure for RRIRNRPPRLPRPRPRPFMFPRP is -0.399; for RRIRIRPPRLPRPRPRPGQTPRP it is 0.0693; for RRIRHRPPRLPRPRPRPAGRPRP it is 0.29.
The figure for RRIRVRPPRLPRPRPRPFAAPRP is 0.15.
The same measure for RRIRTRPPRLPRPRPRPSMFPRP: -0.46; for RRIRLRPPRLPRPRPRPFYGPRP: -0.157.
As to RRIRIRPPRLPRPRPRPGAAPRP, the “shrunken log2 fold change” value was determined as 0.18.
The same measure for RRIRIRPPRLPRPRPRPPHEPRP: 0.225.
As for RRIRERPPRLPRPRPRPGPYPRP, the “shrunken log2 fold change” value was -0.208.
The same measure for RRIRFRPPRLPRPRPRPQAFPRP: -0.175.
The figure for RRIRERPPRLPRPRPRPEYGPRP is -0.315; for RRIRKRPPRLPRPRPRPVCIPRP it is 0.0558.
As for RRIRRRPPRLPRPRPRPMVLPRP, the “shrunken log2 fold change” value is -0.0254.
The figure for RRIRHRPPRLPRPRPRPCYFPRP is -0.117.
As for RRIRTRPPRLPRPRPRPDMNPRP, the “shrunken log2 fold change” value was -0.0432.
For RRIRDRPPRLPRPRPRPPSPPRP, the “shrunken log2 fold change” value was 0.494.
The figure for RRIRHRPPRLPRPRPRPAERPRP is 0.0935.
The same measure for RRIRHRPPRLPRPRPRPIFEPRP: -0.0251; for RRIRMRPPRLPRPRPRPSHGPRP: 0.385; for RRIRRRPPRLPRPRPRPKFTPRP: -0.176.
The same measure for RRIRERPPRLPRPRPRPVGYPRP: 0.161; for RRIRERPPRLPRPRPRPKLFPRP: -0.0593; for RRIRDRPPRLPRPRPRPFWGPRP: 0.127.
As to RRIRDRPPRLPRPRPRPWAFPRP, the “shrunken log2 fold change” value was -0.01.
The same measure for RRIRERPPRLPRPRPRPGWMPRP: 0.144; for RRIRFRPPRLPRPRPRPASTPRP: -0.0365.
In the case of RRIRHRPPRLPRPRPRPKLCPRP, the “shrunken log2 fold change” value was -0.114.
The figure for RRIRWRPPRLPRPRPRPLWLPRP is 0.202; for RRIRLRPPRLPRPRPRPDRQPRP it is 0.00462; for RRIRWRPPRLPRPRPRPFPIPRP it is -0.169.
Turning to RRIRMRPPRLPRPRPRPYVQPRP, the “shrunken log2 fold change” value was determined as 0.056.
For RRIRCRPPRLPRPRPRPVITPRP, the “shrunken log2 fold change” value was -0.496.
Take RRIRCRPPRLPRPRPRPNLAPRP: the “shrunken log2 fold change” value was -0.122.
As for RRIRIRPPRLPRPRPRPNKVPRP, the “shrunken log2 fold change” value was -0.393.
The figure for RRIRWRPPRLPRPRPRPRGEPRP is 0.397; for RRIRERPPRLPRPRPRPCMIPRP it is -0.2; for RRIRYRPPRLPRPRPRPPCHPRP it is -0.285.
Consider RRIRNRPPRLPRPRPRPGAIPRP, for which the “shrunken log2 fold change” value was determined as 0.0755.
The same measure for RRIRGRPPRLPRPRPRPHFGPRP: 0.242.
For the sequence RRIRTRPPRLPRPRPRPGNEPRP, the “shrunken log2 fold change” value is -0.000989.
The figure for RRIRGRPPRLPRPRPRPYTAPRP is -0.455; for RRIRSRPPRLPRPRPRPQAKPRP it is 0.0225; for RRIRYRPPRLPRPRPRPSHNPRP it is -0.628.
The figure for RRIRGRPPRLPRPRPRPLNEPRP is 0.57; for RRIRGRPPRLPRPRPRPNNRPRP it is -0.112; for RRIRFRPPRLPRPRPRPGEDPRP it is -0.224.
